Experimental data: patent US20230242658A1 (published 2023)
One block for each binder: values may come before it.

Tests used:
[1] = biological target: T1, human 4-1BB on CHO-K1 cells (human, UniProt Q07011 24-255); experiment: FACS, CHO-K1/hu 4-1BB cells
T1 construct: whole, on cells; also called CHO-K1/hu 4-1BB; CHO-K1/hu4-1BB

[2] = biological target: T2, histidine-labeled human 4-1BB protein (human, UniProt Q07011 24-186); experiment: BLI Octet RED96, AHC sensor, his-tagged antigen
T2 construct: also called Human 4-1BB protein antigen (histidine-labeled); human 4-1BB protein and his tag (Acrobiosystem, #41B-H5227); not shown: histidine tag
Method: (§1) Specifically, human 4-1BB protein and his tag (Acrobiosystem, #41B-H5227), or cynomolgus monkey 4-1BB protein and his tag (Acrobiosystem, #41B-052H4), were diluted to 400 nM with PBS buffer (pH 7.4) containing 0.1% (w/w) BSA and 0.02% (v/v) Tween 20, and incubated with the AHC sensor. A 40 nM 4-1BB antibody was incubated with the AHC sensor loaded with human 4-1BB protein or monkey 4-1BB protein at 30° C. for 3 min. The reaction mixture was incubated in PBS buffer (pH 7.4) containing 0.1% (v/w) BSA and 0.02% (v/v) Tween 20 at 30° C. for another 5 min The binding and separation signals between the 4-1BB antibody and 4-1BB protein were recorded by Octet Red 96 in real time. The affinity and association and dissociation constants were determined by Octet using software.

[3] = biological target: T3, histidine-labeled cynomolgus monkey 4-1BB protein (cynomolgus monkey); experiment: BLI Octet RED96, AHC sensor, his-tagged antigen
T3 construct: also called Monkey 4-1BB protein antigen (histidine-labeled); cynomolgus monkey 4-1BB protein and his tag (Acrobiosystem, #41B-052H4)
Method: as §1

T2 sequence (Q07011 24-186): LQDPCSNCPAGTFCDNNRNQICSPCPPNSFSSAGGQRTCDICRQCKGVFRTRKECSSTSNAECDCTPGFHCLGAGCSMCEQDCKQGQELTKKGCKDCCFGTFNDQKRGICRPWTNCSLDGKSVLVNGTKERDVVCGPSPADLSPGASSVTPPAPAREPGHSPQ
T1 sequence (Q07011 24-255): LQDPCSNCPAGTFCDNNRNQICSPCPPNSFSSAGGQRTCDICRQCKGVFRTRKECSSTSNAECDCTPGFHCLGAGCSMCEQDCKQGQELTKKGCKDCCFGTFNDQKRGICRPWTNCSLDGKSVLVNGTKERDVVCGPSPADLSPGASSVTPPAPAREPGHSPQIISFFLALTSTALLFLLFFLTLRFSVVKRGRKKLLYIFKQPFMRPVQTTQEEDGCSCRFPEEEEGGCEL

binding result [1]: binds
B1: PR001774 (antibody, human IgG1, V domains shown)
VH: EVQLVESGGGLVQPGGSLRLSCAASGFTFSSFAMTWVRQAPEKGLEWVSTISGSGDTTYYADSVKGRFTISRDSSKNTLYLQMNSLRAEDSAVYFCAKEATAMASDYYYGVDVWGQGTTVTVSS
notes: HCAb, heavy chain only, human IgG1 Fc; also called 1016P0045F7

EC50 [1]: < 0.3 nM
B2: PR001831 (antibody, human IgG1, V domains shown)
VH: EVQLVESGGGVIQPGGSLRLSCEASGFTFSSYAMSWVRQAPEKGLEWVSSISGSGDSTYYADSVKGRFTISRDNSKNTLYLQMNSLRAEDTAGYHCAKEGSNGTDDYHYDIDVWGQGTSVTVSS
notes: HCAb, heavy chain only, human IgG1 Fc; also called 1016P0015C8

Kd [2]: 24.9 nM
Response [2]: 0.307
koff [2]: 0.00664 s⁻¹
kon [2]: 266000 M⁻¹ s⁻¹
Kd [3]: 18.1 nM
Response [3]: 0.222
koff [3]: 0.00347 s⁻¹
kon [3]: 192000 M⁻¹ s⁻¹
EC50 [1]: < 0.3 nM
B3: PR001830 (antibody, human IgG1, V domains shown)
VH: EVQLLESGGGLVQPGGSLRLSCTASGFTFSNYAMSWVRQAPEKGLEWVSSISGSGGSTFYADSVKGRFTISRDNSKNTLYLQMNSLRAEDTAVYFCAKEGSSETDDHYYNVDVWGQGTTVTVSS
notes: HCAb, heavy chain only, human IgG1 Fc; also called 1016P0014G8

binding result [1]: binds
B4: PR001763 (antibody, human IgG1, V domains shown)
VH: EVQLLESGGGLVQPGGSLRLSCTASGFTFSNYAMSWVRQAPEKGLEWVSSISGSGGSTFYADSVKGRFTISRDNSKNTLYLQMNRLTAEDTAVYYCAKEGSNGTDDYHYDIDVWGQGTTVTVSS
notes: HCAb, heavy chain only, human IgG1 Fc; also called 1016P0016E9

Kd [2]: 23.4 nM
Response [2]: 0.311
koff [2]: 0.00506 s⁻¹
kon [2]: 216000 M⁻¹ s⁻¹
Kd [3]: 22.3 nM
Response [3]: 0.273
koff [3]: 0.00309 s⁻¹
kon [3]: 139000 M⁻¹ s⁻¹
EC50 [1]: < 0.3 nM
B5: PR001833 (antibody, human IgG1, V domains shown)
VH: EVQLLESGGGLVQPGGSLRLSCAASGFTFSSYAMSWVRQAPEKGLEWVSSISGSGGSTFYADSVKGRFTISRDNSKNTLYLQMNSLRAEDTAVYFCAKEGATETDDYHFNTDVWGQGTTVTVSS
notes: HCAb, heavy chain only, human IgG1 Fc; also called 1016P0016F8

binding result [1]: binds
B6: PR001776 (antibody, human IgG1, V domains shown)
VH: EVQLLESGGGLVQPGGSLRLSCAASGFTFSSYAMSWVRQAPEKGLEWVSAISSSGGSTYYADSVKGRFTISRDNSKNTLYLQMNSLRAEDTAVYYCAKDGVTTPSYYYYYDMDVWGQGTTVTVSS
notes: HCAb, heavy chain only, human IgG1 Fc; also called 1016P0049C7

EC50 [1]: < 0.3 nM
B7: PR001764 (antibody, human IgG1, V domains shown)
VH: EVQLLESGGGLVQPGGSLRLSCAASGFTFSSYAMSWVRQAPEKGLEWVSAISGGGGSTYYADSVKGRFTISRDNSKNTLYLQMDSLKAEDTAVYYCAKEGTTETDDYHYNMDVWGQGTTVTVSS
notes: HCAb, heavy chain only, human IgG1 Fc; also called 1016P0022E5

binding result [1]: binds
B8: PR004469 (antibody, human IgG1, V domains shown)
VH: EVQLLESGGGLVQPGGSLRLSCAASGFTFSNYAMSWFRQPPETGLKWVSSIDASGGDTYYADSVKGRFTISRDNSKNTLYLQMNSLRAEDTAVYYCAKEGSHGTDDSHYDVDVWGQGTTVTVSS
notes: HCAb, PTM variant of PR001838 (G53A), human IgG1

binding result [1]: binds
B9: PR007289 (antibody, human IgG1, V domains shown)
VH: EVQLVESGGGLVKPGGSLRLSCAASGFTFSDYYMSWFRQAPGKGLEWVSYISSSGSTQDYADSVKGRFTISRDNAKNSLYLQMNSLRAEDTAVYYCAREREPVAGTLDFDNWGQGTPVTVSS
notes: HCAb, heavy chain only, human IgG1 Fc; also called R1016P145B11

binding result [1]: binds
B10: PR007288 (antibody, human IgG1, V domains shown)
VH: EVQLVESGGGLVKPGGSLRLSCAASGFTFSDYYMSWFRQAPGKGLEWVSYISGSGSIIDYADSVKGRFTISRDNAKNSLYLQMNSLRAEDTAVYYCSREREAVAGTLDFDYWGQGTLVTVSS
notes: HCAb, heavy chain only, human IgG1 Fc; also called R1016P144G12

binding result [1]: binds
B11: PR007290 (antibody, human IgG1, V domains shown)
VH: EVQLVESGGGVVQPGRSLRLSCAASGFTFSDYYMSWFRQAPGKGLEWVSYISSSGTTIDYADSVKGRFTISRDNAKNSLYLQMNSLRAEDTAVYYCAREREEVAGTLDFDYWGQGTPVTVSS
notes: HCAb, heavy chain only, human IgG1 Fc; also called R1016P145C05

Kd [2]: 13.5 nM
Response [2]: 0.294
koff [2]: 0.00322 s⁻¹
kon [2]: 239000 M⁻¹ s⁻¹
Kd [3]: 8.89 nM
Response [3]: 0.25
koff [3]: 0.00147 s⁻¹
kon [3]: 165000 M⁻¹ s⁻¹
EC50 [1]: < 0.3 nM
B12: PR001836 (antibody, human IgG1, V domains shown)
VH: EVQLLESGGGLVQPGGSLRLSCAASGFIFSNFAMTWVRQPPEKGLKWVSSINGSGFNTYYTDSVKGRFTISRDNSRNTLYLQMNRLTAEDTAVYFCAKEGSSETDDHYYNVDVWGQGTTVTVSS
notes: HCAb, heavy chain only, human IgG1 Fc; also called 1016P0020G4

binding result [1]: binds
B13: PR001775 (antibody, human IgG1, V domains shown)
VH: EVQLLESGGGLVQSGGSLRLSCAASGFTFSSYAMSWVRQAPGKGLEWVSAISGSGGSTDYADSVKGRFTISRDNSTNTLYLQMNSLRAEDTAVYYCAKERAYDYSNYVDFDYWGQGTLVTVSS
notes: HCAb, heavy chain only, human IgG1 Fc; also called 1016P0046A9

binding result [1]: binds
B14: PR001768 (antibody, human IgG1, V domains shown)
VH: EVQLLESGGGLVQPGGSLRLSCAASGFTFSNYAMTWVRQAPGKGLEWVSSISGSGDSTYYADSVKGRFTISRDNSKNTLYLQMNSLRAEDTAVYYCAKEGTGTTSDYYYNVDVWGQGTTVTVSS
notes: HCAb, heavy chain only, human IgG1 Fc; also called 1016P0039B9

binding result [1]: binds
B15: PR001771 (antibody, human IgG1, V domains shown)
VH: EVQLLESGGGLVQPGGSLRLSCAASGFTFSNYAMTWVRQPPGKGLEWVSSISGSGGSTYYADSVKGRFTISRDNSKNTLYLQMNSLRAEDTAVYYCAKEGTGTTSDYYYNVDVWGQGTTVTVSS
notes: HCAb, heavy chain only, human IgG1 Fc; also called 1016P0042C5

binding result [1]: binds
B16: PR001766 (antibody, human IgG1, V domains shown)
VH: EVQLLESGGGLVQPGGSLRLSCAASGFTFSSYAMSWGRQAPGKGLEWVSSISGSGGSTYYADSVKGRFTISRDNSKNTLYLQMNSLRAEDTAVYYCAKEKTGTTGDYYYDMDVWGQGTTVTVSS
notes: HCAb, heavy chain only, human IgG1 Fc; also called 1016P0034F10

binding result [1]: binds
B17: PR001842 (antibody, human IgG1, V domains shown)
VH: EVQLLESGGGLVQPGGSLRLSCAASGFTFSSYAMSWGRQAPGKGLEWVSAISGSGGSTYYADSVKGRFTISRDNSKNTLYLHMNSLRAEDTAVYYCAKEKVATTGDYYYDMDVWGQGTTVTVSS
notes: HCAb, heavy chain only, human IgG1 Fc; also called 1016P0045A3

binding result [1]: binds
B18: PR001780 (antibody, human IgG1, V domains shown)
VH: EVQLLESGGGLIQPGGSLRLSCAASGFTFSSFAMTWVRQAPGKGLEWVSTISGSGDNTYYADSVKGRFTISRDNSKNTLYLQMNSLRAEDTAVYFCAKEDTAVASDYYYNIDVWGQGTTVTVSS
notes: HCAb, heavy chain only, human IgG1 Fc; also called 1016P0058D11

binding result [1]: binds
B19: PR001834 (antibody, human IgG1, V domains shown)
VH: EVQLLESGGGLVQPGGSLRLSCAASGFTFSGYAMTWVRQPPEKGLEWVSSISGSGNNTFYADSVKGRFTISRDNSKNTLYLQMNSLRAEDTAVYYCAKEGTTETDDYHYNMDVWGQGTTVTVSS
notes: HCAb, heavy chain only, human IgG1 Fc; also called 1016P0019C9

binding result [1]: binds
B20: PR001781 (antibody, human IgG1, V domains shown)
VH: EVQLLESGGGLVQLGGSLRLSCAASGFTFSSYAMTWVRQAPEKGLEWVSSISGSGGNTYYADSVKGRFTISRDNSKNTLYLQMNSLRAEDTAVYYCAKERTGTTGDYYYNVDVWGQGTTVTVSS
notes: HCAb, heavy chain only, human IgG1 Fc; also called 1016P007F3

binding result [1]: binds
B21: PR001837 (antibody, human IgG1, V domains shown)
VH: EVQLLESGGGLVQPGGSLRLSCEASGFTFSSYAMSWVRQAPEKGLEWVSSISGSGGSTFYADSVKGRFTISRDNSKNTLYLQMNSLRAEDTAVYYCAKEGTTETDDYHYNMDVWGQGTTVTVSS
notes: HCAb, heavy chain only, human IgG1 Fc; also called 1016P0024B10

binding result [1]: binds
B22: PR007381 (antibody, human IgG1, V domains shown)
VH: EVQLLESGGGLVQPGGSLRLSCAASGFTFSNYAMSWVRQAPGKGLEWVSSIDASGGDTYYADSVKGRFTISRDNSKNTLYLQMNSLRAEDTAVYYCAKEGSHGTDDSHYDVDVWGQGTTVTVSS
notes: HCAb, variant of PR001838 (F37V, P40A, E42G, T43K, K46E, G53A), human IgG1
